Assay results as given in article PMC5945002.

Target: BrvH, flavin-dependent halogenase (predicted gene 12 of the Botany Bay metagenome) (Brevundimonas BAL3 (most likely; gene found in the Botany Bay metagenome))
Assay: SEC; 16/60 Superdex 200, 10 mM Tris 20 mM NaCl pH 8, 4 °C, flow rate 1 mL/min; last step of the purification for crystallisation

BrvH, flavin-dependent halogenase (predicted gene 12 of the Botany Bay metagenome) (enzyme)
stoichiometry N: 2
